The test system of data set [1] is PshAI restriction endonuclease (recombinant, pPshAIR1, NEB#984) (Plesiomonas shigelloides). The data set can be described thus: cleavage_in_vitro. The following applies: crude extract, NEBuffer 2, 30 C, 30 min.
The test system of data set [2] is PshAI restriction endonuclease (native) (Plesiomonas shigelloides). As to the kind of experiment: cleavage_in_vitro. The following applies: total activity in Mono Q peak, assayed on lambda DNA.

Consider lambda DNA, for which the activity (units/g cells) in data set [1] was 1e+07. Besides, in data set [2], the activity worked out at 250000 units.

Source of the values: patent US5824529.
